Data reported in paper PMC5943355.

Molecular target: Na+,HCO3- co-transporter NBCn1 (SLC4A7), native in MDCK-II cells (canine (endogenous in MDCK-II))
Experiment: proximity ligation; in situ PLA (Duolink II) with primary antibodies against NBCn1 and RACK1 in fixed non-confluent (60-70% confluency) MDCK-II or MCF-7 cells; control with only NBCn1 antibody

PLA signal, fold above the control with only NBCn1 antibody: 8 fold
Substance: RACK1, native in MDCK-II cells (natural protein)
